Data on one molecule can be found in publication PMC5340921.

The target of this data set is T1, PPR10 (maize, UniProt B8Y6I0 38-786).
T1 sequence: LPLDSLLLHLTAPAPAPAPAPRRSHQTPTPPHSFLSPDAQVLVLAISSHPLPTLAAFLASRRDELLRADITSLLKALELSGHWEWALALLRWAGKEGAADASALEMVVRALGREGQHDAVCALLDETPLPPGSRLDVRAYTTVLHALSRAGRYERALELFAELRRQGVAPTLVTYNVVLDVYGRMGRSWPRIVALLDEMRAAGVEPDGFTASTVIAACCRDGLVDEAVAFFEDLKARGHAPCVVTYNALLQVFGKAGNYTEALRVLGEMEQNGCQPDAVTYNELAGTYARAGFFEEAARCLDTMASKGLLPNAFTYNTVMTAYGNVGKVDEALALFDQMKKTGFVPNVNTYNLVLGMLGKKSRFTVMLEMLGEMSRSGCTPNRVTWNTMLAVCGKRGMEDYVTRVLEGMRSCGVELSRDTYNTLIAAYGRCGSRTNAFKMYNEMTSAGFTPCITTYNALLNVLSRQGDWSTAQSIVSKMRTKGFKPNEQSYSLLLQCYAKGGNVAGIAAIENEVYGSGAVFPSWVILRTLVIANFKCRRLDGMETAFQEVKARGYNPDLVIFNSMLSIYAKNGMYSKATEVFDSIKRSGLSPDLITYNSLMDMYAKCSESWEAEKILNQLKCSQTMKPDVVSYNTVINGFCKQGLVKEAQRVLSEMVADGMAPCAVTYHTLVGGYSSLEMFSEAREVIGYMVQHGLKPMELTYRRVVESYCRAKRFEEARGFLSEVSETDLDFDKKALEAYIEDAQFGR
Kind of data set: EMSA. In general terms: A gel shift assay detects complexes by their altered migration in electrophoresis.

B1: atpH WT 17-mer (ssRNA)
RNA: GUAUCCUUAACCAUUUC
As for B1, the binding result is on record as “binds”.
